According to US7129053 (DAKOCYTOMATION DENMARK A S, dated 2006):

T1: H. pylori catalase (Helicobacter pylori, UniProt P77872 1-505)
T1 construct: mature; also called katalase; immunizing antigen
T1 sequence (looked up): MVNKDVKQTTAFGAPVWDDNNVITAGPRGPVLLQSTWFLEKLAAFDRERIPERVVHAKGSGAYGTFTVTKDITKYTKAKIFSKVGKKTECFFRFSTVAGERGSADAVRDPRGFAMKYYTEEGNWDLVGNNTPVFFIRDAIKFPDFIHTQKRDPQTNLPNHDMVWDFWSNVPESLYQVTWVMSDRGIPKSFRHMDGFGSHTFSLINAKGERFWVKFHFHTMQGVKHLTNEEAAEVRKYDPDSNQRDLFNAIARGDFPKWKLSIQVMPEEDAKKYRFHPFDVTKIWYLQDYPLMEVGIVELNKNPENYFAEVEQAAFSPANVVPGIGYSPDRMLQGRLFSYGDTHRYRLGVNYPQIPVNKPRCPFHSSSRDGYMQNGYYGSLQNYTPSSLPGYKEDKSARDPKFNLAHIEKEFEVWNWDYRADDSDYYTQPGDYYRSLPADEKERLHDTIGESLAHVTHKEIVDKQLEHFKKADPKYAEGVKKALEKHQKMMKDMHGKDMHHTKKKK

B1: monoclonal antibody HP25.6m/1B5 (antibody, IgG1, V domains shown)
VH: EVQLQQSGAELVKPGASVKLSCTSSGFNIKDTYVHWMKQRPEQGLEWIGKIDPANGKTKYDPIFQAKATMTADASSNTAYLQLSSLTSEDTAVYYCALPIYYASSWFAYWGQGTLVTVSA
VL: DIVMTQSHKFMSTSVGDRVSITCKASQDVGTSVAWYQQKPGHSPKLLIYWTSTRHTGVPDRFTGSGSGTDFILTISNVQSEDLADYFCQQYSSSPTFGGGAKVEIK
notes: also called HP25.6m1/1B5
B2: monoclonal antibody HP25.2m/2H10 (antibody, IgG2a, V domains shown)
VH: VQLLEQPGAELAKPGASVKMSCKASGYTFTNYWIHWVKQRPGQGLKWIGYINPATGSTSYNQDFQDRATLTADKSSTTAYMQLTSLTSEDSSVYYCAREGYDGFDSWGQGTTLTVSS
VL: ELVLTQSPAIMSASPGEKVTMTCSASSSVNYMYWYQQKSGTSPKRWIYDTSKLASGVPARFSGSGSGTSYSLTLSSMEAEDAATYYCQQWSSNPYTFGGGTKLEIK
notes: also called HP25.2m/2H10 (K10); HP25.2m/2Hallin (K10)

Target: T1, H. pylori catalase
Assay: SPR (BIAcore), catalase amine-coupled on CM5 chip, antibody 20-670 nM in flow
Protocol: Catalase was Immobilized through amine coupling on the dextrane matrix of the BIAcore CM5 sensor chip. For the activation of the dextrane matrix 45 μl of a 1:1-mixture of 0.05 M N-hydroxysuccinimide (NHS) and 0.2 M 1-ethyl-3-3-dimethylaminopropyl)carbodiimide (EDC) solution was conducted over the sensor chip at a flow rate of 5 μl/min. Then, the catalase (35 μl; 50 μg/ml in 10 mM sodium acetate, pH 5.0) were bound to the dextrane matrix. The remaining NHS ester was deactivated with 1 M ethanolamine (35 μl). Catalase that was not covalently bound to the dextrane matrix was removed by regenerating the sensor chip with HCl (10 mM; 15 μl).
By adding the catalase-specific monoclonal antibodies, these were made react with immobilized catalase and the mass attachment to the detector was measured. Antibody solutions in different concentrations ranging from 20 to 670 nM were used. They were injected via the catalase immobilized on the sensor chip at a flow rate of 25 μl/min each.
The values for the rate constants of the adsorption ($kon$) and desorption ($koff$) of the antibody could be calculated (BIAevaluation software 3.0).

Binder | Kd [pM] | koff [s⁻¹] | kon [M⁻¹ s⁻¹]
B1 | 681 | 3.86e-05 | 56700
B2 | 271 | 3.9e-05 | 144000
